# Test results from IntAct's records for PubMed 10449590.
# B1: Transcription initiation factor IIB (Homo sapiens), Q00403 (parent)
# chain: MASTSRLDALPRVTCPNHPDAILVEDYRAGDMICPECGLVVGDRVIDVGSEWRTFSNDKATKDPSRVGDSQNPLLSDGDLSTMIGKGTGAASFDEFGNSKYQNRRTMSSSDRAMMNAFKEITTMADRINLPRNIVDRTNNLFKQVYEQKSLKGRANDAIASACLYIACRQEGVPRTFKEICAVSRISKKEIGRCFKLILKALETSVDLITTGDFMSRFCSNLCLPKQVQMAATHIARKAVELDLVPGRSPISVAAAAIYMASQASAEKRTQKEIGDIAGVADVTIRQSYRLIYPRAPDLFPTDFKFDTPVDKLPQL
# partner: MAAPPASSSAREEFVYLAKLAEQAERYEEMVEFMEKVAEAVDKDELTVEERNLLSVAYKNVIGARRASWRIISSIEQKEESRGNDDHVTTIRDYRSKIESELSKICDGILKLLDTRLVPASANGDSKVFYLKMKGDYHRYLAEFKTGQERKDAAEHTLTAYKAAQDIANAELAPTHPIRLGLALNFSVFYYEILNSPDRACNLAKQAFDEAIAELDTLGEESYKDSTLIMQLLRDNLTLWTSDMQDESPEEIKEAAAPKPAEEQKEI
# B2: 14-3-3 protein epsilon (Homo sapiens), P62258 (parent)
# chain: MDDREDLVYQAKLAEQAERYDEMVESMKKVAGMDVELTVEERNLLSVAYKNVIGARRASWRIISSIEQKEENKGGEDKLKMIREYRQMVETELKLICCDILDVLDKHLIPAANTGESKVFYYKMKGDYHRYLAEFATGNDRKEAAENSLVAYKAASDIAMTELPPTHPIRLGLALNFSVFYYEILNSPDRACRLAKAAFDDAIAELDTLSEESYKDSTLIMQLLRDNLTLWTSDMQGDGEEQNKEALQDVEDENQ
# B3: 14-3-3-like protein GF14 phi (Arabidopsis thaliana (Mouse-ear cress)), P46077 (parent)
# chain: B1 partner
# partner: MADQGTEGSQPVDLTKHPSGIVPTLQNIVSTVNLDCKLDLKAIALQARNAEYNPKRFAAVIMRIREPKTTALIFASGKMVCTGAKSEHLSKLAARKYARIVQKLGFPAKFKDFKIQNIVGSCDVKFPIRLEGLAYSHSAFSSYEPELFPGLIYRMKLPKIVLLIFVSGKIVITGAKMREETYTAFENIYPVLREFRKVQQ
# B4: 14-3-3-like protein GF14 phi (Arabidopsis thaliana (Mouse-ear cress)), P46077 (parent)
# chain: B1 partner
# partner: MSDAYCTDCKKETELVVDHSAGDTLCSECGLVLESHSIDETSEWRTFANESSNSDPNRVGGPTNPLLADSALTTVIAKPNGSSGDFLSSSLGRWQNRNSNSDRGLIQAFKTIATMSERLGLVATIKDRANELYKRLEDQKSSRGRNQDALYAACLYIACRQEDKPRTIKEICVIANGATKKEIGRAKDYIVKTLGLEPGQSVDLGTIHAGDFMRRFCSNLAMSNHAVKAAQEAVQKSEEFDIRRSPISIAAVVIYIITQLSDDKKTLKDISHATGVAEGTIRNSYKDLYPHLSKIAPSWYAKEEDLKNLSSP
# Variants of: B1
# Conditions: with 14334_arath GRF4, P46077
row,Variant,effect of a mutation on the interaction
1,MASTSRLDALPRVTCPNHPDAILVEDYRAGDMICPECGLVVGDRVIDVGSEWRTFSNDKATKDPSRVGDSQNPLLSDGDLSTMIGKGTGAASFDEFGNSKYQNRRTMSSSDRAMMNAFKEITTMADRINLPRNIVDRTNNLFKQVYEQKSLKGRANDAIASACLYIACRQEGVPRTFKEICAVSEISKKEIGECFKLILKALETSVDLITTGDFMSRFCSNLCLPKQVQMAATHIARKAVELDLVPGRSPISVAAAAIYMASQASAEKRTQKEIGDIAGVADVTIRQSYRLIYPRAPDLFPTDFKFDTPVDKLPQL [R185E;R193E],decreasing interaction

# Variants of: B2
# Conditions: with tbp_human TBP
row,Variant,effect of a mutation on the interaction
1,MDDREDLVYQAKLAEQAERYDEMVESMKKVAGMDVELTVEERNLLSVAYKNVIGARRASWRIISSIEQKEENKGGEDKLKMIREYRQMVETELKLICCDILDVLDKHLIPAANTGESKVFYYKMKGDYHRYLAEFATGNDRKEAAENSLVAYKAASDIAMTELPPTHPIRLGLAAAFSVFYYEILNSPDRACRLAKAAFDDAIAELDTLSEESYKDSTLIMQLLRDNLTLWTSDMQGDGEEQNKEALQDVEDENQ [L175A;N176A],decreasing interaction
2,MDDREDLVYQAKLAEQAERYDEMVESMKKVAGMDVELTVEERNLLSVAYKNVIGARRASWRIISSIEQKEENKGGEDKLKMIREYRQMVETELKLICCDILDVLDKHLIPAANTGESKVFYYKMKGDYHRYLAEFATGNDRKEAAENSLVAYKAASDIAMTELPPTHPIRLGLALNAAVFYYEILNSPDRACRLAKAAFDDAIAELDTLSEESYKDSTLIMQLLRDNLTLWTSDMQGDGEEQNKEALQDVEDENQ [F177A;S178A],disrupting interaction
3,MDDREDLVYQAKLAEQAERYDEMVESMKKVAGMDVELTVEERNLLSVAYKNVIGARRASWRIISSIEQKEENKGGEDKLKMIREYRQMVETELKLICCDILDVLDKHLIPAANTGESKVFYYKMKGDYHRYLAEFATGNDRKEAAENSLVAYKAASDIAMTELPPTHPIRLGLALNFSAAYYEILNSPDRACRLAKAAFDDAIAELDTLSEESYKDSTLIMQLLRDNLTLWTSDMQGDGEEQNKEALQDVEDENQ [V179A;F180A],decreasing interaction

# Variants of: B3
# Conditions: with tbp2_arath TBP2, P28148
row,Variant,effect of a mutation on the interaction
1,MAAPPASSSAREEFVYLAKLAEQAERYEEMVEFMEKVAEAVDKDELTVEERNLLSVAYKNVIGARRASWRIISSIEQKEESRGNDDHVTTIRDYRSKIESELSKICDGILKLLDTRLVPASANGDSKVFYLKMKGDYHRYLAEFKTGQERKDAAEHTLTAYKAAQDIANAELAPTHPIRLGLAAAFSVFYYEILNSPDRACNLAKQAFDEAIAELDTLGEESYKDSTLIMQLLRDNLTLWTSDMQDESPEEIKEAAAPKPAEEQKEI [L184A;N185A],decreasing interaction
2,MAAPPASSSAREEFVYLAKLAEQAERYEEMVEFMEKVAEAVDKDELTVEERNLLSVAYKNVIGARRASWRIISSIEQKEESRGNDDHVTTIRDYRSKIESELSKICDGILKLLDTRLVPASANGDSKVFYLKMKGDYHRYLAEFKTGQERKDAAEHTLTAYKAAQDIANAELAPTHPIRLGLALNAAVFYYEILNSPDRACNLAKQAFDEAIAELDTLGEESYKDSTLIMQLLRDNLTLWTSDMQDESPEEIKEAAAPKPAEEQKEI [F186A;S187A],disrupting interaction
3,MAAPPASSSAREEFVYLAKLAEQAERYEEMVEFMEKVAEAVDKDELTVEERNLLSVAYKNVIGARRASWRIISSIEQKEESRGNDDHVTTIRDYRSKIESELSKICDGILKLLDTRLVPASANGDSKVFYLKMKGDYHRYLAEFKTGQERKDAAEHTLTAYKAAQDIANAELAPTHPIRLGLALNFSAAYYEILNSPDRACNLAKQAFDEAIAELDTLGEESYKDSTLIMQLLRDNLTLWTSDMQDESPEEIKEAAAPKPAEEQKEI [V188A;F189A],decreasing interaction

# Variants of: B4
# Conditions: with tf2b1_arath TFIIB1, P48512
row,Variant,effect of a mutation on the interaction
1,MAAPPASSSAREEFVYLAKLAEQAERYEEMVEFMEKVAEAVDKDELTVEERNLLSVAYKNVIGARRASWRIISSIEQKEESRGNDDHVTTIRDYRSKIESELSKICDGILKLLDTRLVPASANGDSKVFYLKMKGDYHRYLAEFKTGQERKDAAEHTLTAYKAAQDIANAELAPTHPIRLGLAAAFSVFYYEILNSPDRACNLAKQAFDEAIAELDTLGEESYKDSTLIMQLLRDNLTLWTSDMQDESPEEIKEAAAPKPAEEQKEI [L184A;N185A],decreasing interaction
2,MAAPPASSSAREEFVYLAKLAEQAERYEEMVEFMEKVAEAVDKDELTVEERNLLSVAYKNVIGARRASWRIISSIEQKEESRGNDDHVTTIRDYRSKIESELSKICDGILKLLDTRLVPASANGDSKVFYLKMKGDYHRYLAEFKTGQERKDAAEHTLTAYKAAQDIANAELAPTHPIRLGLALNAAVFYYEILNSPDRACNLAKQAFDEAIAELDTLGEESYKDSTLIMQLLRDNLTLWTSDMQDESPEEIKEAAAPKPAEEQKEI [F186A;S187A],disrupting interaction
3,MAAPPASSSAREEFVYLAKLAEQAERYEEMVEFMEKVAEAVDKDELTVEERNLLSVAYKNVIGARRASWRIISSIEQKEESRGNDDHVTTIRDYRSKIESELSKICDGILKLLDTRLVPASANGDSKVFYLKMKGDYHRYLAEFKTGQERKDAAEHTLTAYKAAQDIANAELAPTHPIRLGLALNFSAAYYEILNSPDRACNLAKQAFDEAIAELDTLGEESYKDSTLIMQLLRDNLTLWTSDMQDESPEEIKEAAAPKPAEEQKEI [V188A;F189A],decreasing interaction
